Data set [1] has as its target 1TEL-GG-UBA as run in size exclusion chromatography with ubiquitin (human) (UniProt P41212). Description: SEC.
The data set “crystal structure” concerns the molecule itself. Description: crystal structure.

The molecule “M1-linked-di-ubiquitin (from UniProt P0CG47 1-76; P0CG47 1-76) (natural protein)” yielded a percent binding in data set [1] of 100%.
Same read-out and setting: the value for “M1-linked-tri-ubiquitin (from UniProt P0CG47 1-76; P0CG47 1-76; P0CG47 1-76) (natural protein)” was 100%.
Same read-out and setting: the value for “M1-linked-tetra-ubiquitin (from UniProt P0CG47 1-76; P0CG47 1-76; P0CG47 1-76; P0CG47 1-76) (natural protein)” was 100%.

B1: 1TEL-GG-UBA (other, human)
chain: IRLPAHLRLQPIYWSRDDVAQWLKWAENEFSLSPIDSNTFEMNGKALLLLTKEDFRYRSPHSGDELYELLQHILGGELQRKIMEVELSVHGVTHQEAQTALGATGGDVVSAIRNLKVDQLFHLSSRSRADAWRILEHYQWDLSAASRYVLARP
In the case of B1, the binding result in the data set “crystal structure” was “binds”.

B2: 1TEL-GSGG-UBA (other, human)
chain: IRLPAHLRLQPIYWSRDDVAQWLKWAENEFSLSPIDSNTFEMNGKALLLLTKEDFRYRSPHSGDELYELLQHILGSGGELQRKIMEVELSVHGVTHQEAQTALGATGGDVVSAIRNLKVDQLFHLSSRSRADAWRILEHYQWDLSAASRYVLARP
Take B2: the binding result in “crystal structure” is “binds”.

For the origin of these results see PMC10843481 (Structure (London, England : 1993), 2023).
